Experimental data as given in doi:10.1101/2024.12.16.628611.

Biological target: His6-BacA_(F134R), purified (Asticcacaulis biprosthecum)
Test: SEC; 500 μl of purified protein from the polymerization assay (Buffer C) on Superdex 200 Increase 10/300 GL, calibrated with standard proteins

- stoichiometry N: 2
Substance: His6-BacA_(F134R), purified (natural protein)
